According to patent US7223556 (Harvard, dated 2007):

Columns and labels:
[1] = molecular target: Skp1p (Saccharomyces cerevisiae) (UniProt P52286); test: cell-based or functional assay
[2] = molecular target: retinoblastoma tumor suppressor protein (pRB) (UniProt P06400); test: cell-based or functional assay
[3] = molecular target: EE-tagged HPV16-E2 (human papillomavirus type 16) (UniProt P03120); test: cell-based or functional assay
[4] = molecular target: T1, retinoblastoma tumor suppressor protein (pRB) (UniProt P06400 1-928); test: co-immunoprecipitation of in vitro translated 35S-labelled proteins with anti-Flag M2 antibody, SDS PAGE
T1 construct: For the co-immunoprecipitation it was translated in vitro and 35S-labelled; In yeast Y81 cells it was expressed from plasmid p2202TRB
T1 sequence: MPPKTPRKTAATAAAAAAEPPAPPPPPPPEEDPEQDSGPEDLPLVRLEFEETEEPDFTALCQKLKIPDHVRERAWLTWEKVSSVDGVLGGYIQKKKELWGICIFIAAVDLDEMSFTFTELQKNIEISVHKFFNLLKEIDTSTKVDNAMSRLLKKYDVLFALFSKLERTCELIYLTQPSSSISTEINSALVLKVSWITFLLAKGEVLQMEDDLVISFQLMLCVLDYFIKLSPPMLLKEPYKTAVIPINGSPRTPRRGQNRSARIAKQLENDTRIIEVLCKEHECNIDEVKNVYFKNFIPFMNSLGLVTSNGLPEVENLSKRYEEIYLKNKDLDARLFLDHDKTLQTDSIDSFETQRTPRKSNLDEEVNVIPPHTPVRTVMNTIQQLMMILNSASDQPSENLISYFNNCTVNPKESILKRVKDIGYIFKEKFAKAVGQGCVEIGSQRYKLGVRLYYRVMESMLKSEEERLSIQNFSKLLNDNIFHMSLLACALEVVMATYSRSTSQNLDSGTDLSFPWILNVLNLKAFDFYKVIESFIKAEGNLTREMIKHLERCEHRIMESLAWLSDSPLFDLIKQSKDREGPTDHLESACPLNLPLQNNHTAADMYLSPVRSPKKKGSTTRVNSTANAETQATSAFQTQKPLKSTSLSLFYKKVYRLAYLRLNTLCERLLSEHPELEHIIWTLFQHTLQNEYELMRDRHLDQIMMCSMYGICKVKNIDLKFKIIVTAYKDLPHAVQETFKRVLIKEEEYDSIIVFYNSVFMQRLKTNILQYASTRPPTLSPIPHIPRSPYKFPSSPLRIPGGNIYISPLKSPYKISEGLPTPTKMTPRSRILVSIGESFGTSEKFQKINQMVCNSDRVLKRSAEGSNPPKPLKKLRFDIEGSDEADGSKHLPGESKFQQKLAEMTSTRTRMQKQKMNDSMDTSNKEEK

Sequence of Skp1p (Saccharomyces cerevisiae) (P52286 whole entry): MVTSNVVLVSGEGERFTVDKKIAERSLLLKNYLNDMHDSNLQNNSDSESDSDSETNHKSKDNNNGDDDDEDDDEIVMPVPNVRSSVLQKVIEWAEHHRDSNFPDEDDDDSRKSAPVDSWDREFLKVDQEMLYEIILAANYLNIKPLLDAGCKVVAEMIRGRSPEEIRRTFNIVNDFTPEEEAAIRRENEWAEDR
Sequence of EE-tagged HPV16-E2 (human papillomavirus type 16) (P03120 whole entry): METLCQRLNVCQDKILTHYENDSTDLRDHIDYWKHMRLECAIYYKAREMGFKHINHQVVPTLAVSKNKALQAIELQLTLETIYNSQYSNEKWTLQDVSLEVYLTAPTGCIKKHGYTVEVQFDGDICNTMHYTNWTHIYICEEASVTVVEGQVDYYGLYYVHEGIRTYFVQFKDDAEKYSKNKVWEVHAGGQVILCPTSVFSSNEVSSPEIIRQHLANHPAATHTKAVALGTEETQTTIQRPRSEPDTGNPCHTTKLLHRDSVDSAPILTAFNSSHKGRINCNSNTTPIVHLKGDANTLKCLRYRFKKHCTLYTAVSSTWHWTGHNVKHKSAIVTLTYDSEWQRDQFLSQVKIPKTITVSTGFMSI

Cdc4p^F/WD-βgal (from UniProt P00722 10-1024)
half life of the βgal fusion after promoter shut-off in KY130 cells [1]: 35 min

Cdc4p^F/WD-E7N (from UniProt P03129 2-35)
half life of pRB after promoter shut-off in Y81 yeast cells [2]: 70 minutes

Cdc4p^F/WD-E1C (from UniProt P03114 424-649)
half life of EE-E2 after promoter shut-off in INVSc1 yeast cells [3]: 16 min

Cdc4p(G300D) (from UniProt P07834 1-779)
half life of the mutant Cdc4p protein after promoter shut-off in KY130 cells [1]: > 60 min

Cdc4p(ΔF)
half life of the mutant Cdc4p protein after promoter shut-off in KY130 cells [1]: > 60 min

B1: Flag-tagged βTrCP (other)
chain: MDPAEAVLQEKALKFMNSSEREDCNNGEPPRKIIPEKNSLRQTYNSCARLCLNQETVCLASTAMKTENCVAKTKLANGTSSMIVPKQRKLSASYEKEKELCVKYFEQWSESDQVEFVEHLISQMCHYQHGHINSYLKPMLQRDFITALPARGLDHIAENILSYLDAKSLCAAELVCKEWYRVTSDGMLWKKLIERMVRTDSLWRGLAERRGWGQYLFKNKPPDGNAPPNSFYRALYPKIIQDIETIESNWRCGRHSLQRIHCRSETSKGVYCLQYDDQKIVSGLRDNTIKIWDKNTLECKRILTGHTGSVLCLQYDERVIITGSSDSTVRVWDVNTGEMLNTLIHHCEAVLHLRFNNGMMVTCSKDRSIAVWDMASPTDITLRRVLVGHRAAVNVVDFDDKYIVSASGDRTIKVWNTSTCEFVRTLNGHKRGIACLQYRDRLVVSGSSDNTIRLWDIECGACLRVLEGHEELVRCIRFDNKRIVSGAYDGKIKVWDLVAALDPRAPAGTLCLRTLVEHSGRVFRLQFDEFQIVSSSHDDTILIWDFLNDPAAQAEPPRSPSRTYTYISR
notes: Untagged βTrCP in lane 1 is the control for the anti-Flag immunoprecipitation; also called F-βTrCP; F-TrCP
binding result [4]: no binding
